Target: the molecule itself
Test: crystal structure

B1: KirBac3.1 S129R mutant channel (natural protein)
chain: MTGGMKPPARKPRILNSDGSSNITRLGLEKRGWLDDHYHDLLTVSWPVFITLITGLYLVTNALFALAYLACGDVIENARPGSFTDAFFFSVQTMATIGYGKLIPIGPLANTLVTLEALCGMLGLAVAARLIYARFTRPTAGVLFSSRMVISDFEGKPTLMMRLANLRIEQIIEADVHLVLVRSEISQEGMVFRRFHDLTLTRSRSPIFSLSWTVMHPIDHHSPIYGETDETLRNSHSEFLVLFTGHHEAFAQNVHARHAYSCDEIIWGGHFVDVFTTLPDGRRALDLGKFHEIAQ
stoichiometry N: 4

Source: PMC3272479 (Nature structural & molecular biology, 2012)
